Measurements reported in PMC12054373.

What was measured:
[1] = target: T1, bS21 (Halalkalibacterium halodurans C-125?) (UniProt Q9KD65); assay: filter binding; conditions: Filter binding: 20 mM Tris-HCl pH 7.5, 150 mM NaCl, 10 mM MgCl2, 1 mM TCEP, 5% glycerol, 0.001% SDS, ~2.5 nM RNA, 20°C, 15 min; in-line probing buffer not in …
T1 sequence: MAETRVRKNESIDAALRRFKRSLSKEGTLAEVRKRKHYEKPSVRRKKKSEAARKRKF

[2] = target: T1, bS21 (Halalkalibacterium halodurans C-125?); assay: footprinting (in-line probing); conditions: Filter binding: 20 mM Tris-HCl pH 7.5, 150 mM NaCl, 10 mM MgCl2, 1 mM TCEP, 5% glycerol, 0.001% SDS, ~2.5 nM RNA, 20°C, 15 min; in-line probing buffer not in …

Sequence | binding [1] | binding [2]
GGAUCGAUGAAGCUCCUUGUGAUGGCUUGAGGCGCCCAGCCUUGGGUCAUUGCUGGGAGAAAAGGUAGUAGGGCGAUCCACAAAGGCAUGUGGGCGAUGACCCUCCUACUG [OLE83-191 WT] | binds | binds
GGCAUUUAAAGAGGAUUACAGUGUGGACUAAGUGGUAAUCCAGUCUGGCGUUUGGUGACAGCGCCAAGUUCAACAUAAAGGGAAACCGCCAGCGCGGCGACGCACUGGUGUUGAAUUGGGAAAUCCUACUGGACCUAAGCCACAGAGUUUACUCUUUAAAUG [OLE449-608] | binds more weakly | 
GGGGCACAUCGAUGAAGCUCCUUGUGAUGGCUUGAGGCGCCCAGCCUUGGGUCAUUGCUGGGAGAAAAGGUAGUAGGGCGAUCCACAAAGGCAUGUGGGCGAUGACCCUCCUACUGUGGAGGCCUUUUUCUCUGCUGCUUAUGUAUGGACAUAGGGCAAGAGCAAAGGGUAUGAACCUGCGAAGGCAAGCUAGGGAGCUUGUCAGCAGCGUAGCC [OLE78-290] | binds | binds
